According to US20070087986A1, “Compositions and methods for enhancing immunity by chemoattractant adjuvants” (priority 2004, published 2007):
Non-standard residues stand in square brackets, D forms with d. No end group written: not given here.

T1: FPRL1 (Homo sapiens, UniProt P25090)
T1 sequence (P25090 1-351): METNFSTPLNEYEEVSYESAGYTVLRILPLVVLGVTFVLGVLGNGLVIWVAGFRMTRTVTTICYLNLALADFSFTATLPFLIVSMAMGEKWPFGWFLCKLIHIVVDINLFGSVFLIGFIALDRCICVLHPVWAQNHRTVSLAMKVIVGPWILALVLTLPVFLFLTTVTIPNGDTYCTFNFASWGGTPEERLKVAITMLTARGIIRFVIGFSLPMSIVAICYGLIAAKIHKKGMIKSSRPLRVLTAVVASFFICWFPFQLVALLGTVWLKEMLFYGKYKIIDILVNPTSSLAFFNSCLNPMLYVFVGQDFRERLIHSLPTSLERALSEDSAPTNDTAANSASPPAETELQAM

B1: mC5a: chemoattractant mC5a (SEQ ID NO: 62) (protein, listed as Homo sapiens)
chain: NLHLLRQKIEEQAAKYKHSVPKKCCYDGARVNFYETCEERVARVTIGPLCIRAFNECCTIANKIRKESPHKPVQLGR

Assays:
[1] = tested on: Female BALB/C mice; type: in vivo; details: for levels of antigen specific IgA antibodies: mucosal samples, day 21, intranasal rPA plus adjuvant; for levels of antigen specific IgG antibodies: serum, day 21, intranasal rPA 10 μg plus adjuvant, vs rPA alone
[2] = biological target: T1, FPRL1; assay: FPRL1 activity of SHAAGtide and truncated and other variants; details: in words: high, moderate, low
Description: In addition to the agonists and antagonists shown in TABLE 4, SHAAGtide polypeptides were also shown to modulate FPRL1 activity. The term “SHAAGtide” includes SHAAGtide polypeptides (shown in TABLE 5), including isolated or purified SHAAGtide polypeptides, proteins or biologically active fragments separated from or recovered from a component of its natural environment; and polynucleotides shown in TABLE 6, truncated variants and other variants thereof, including naturally occurring allelic variants, derivatives and analogs. SHAAGtide polypeptides are derived from the alternatively spliced variant of CKβ8, namely CKβ8-1. CKβ8-1 is a 116 amino acid long polypeptide that includes the sequence of SHAAGtide polypeptides. […]

Molecule	levels of antigen specific IgA antibodies [1]	levels of antigen specific IgG antibodies [1]	FPRL1 Activity [2]
5′-TCCATGACGTTCCTGATGCT-3′ (chemistry not given here) [CpG, CpG oligonucleotide, ligand for TLR9, reference compound]	did not induce significant levels	did not induce significant levels	–
IGPQMTLSHAAG [CCXP4]	–	–	Low
LWRRKIGPQMTLSH [CCXP11]	–	–	Moderate
MLWRRKIGPQM [CCXP8]	–	–	Moderate
MLWRRKIGPQMT [CCXP5]	–	–	Moderate
MLWRRKIGPQMTLSH [CCXP3]	–	–	High
MLWRRKIGPQMTLSHAAG [CCXP1]	did not induce significant levels	did not induce significant levels	sequence high
MLWRRKIGPQMTLSHAAY [CCXP6]	–	–	high
RRKIGPQMTLSHAAG [CCXP2]	–	–	Low
Trp-Lys-Tyr-Met-Val-D-Met-CONH2 (WKYMV[dM]-NH2) [W-tide, WKYMV-(d-Met)-CONH2, synthetic hexapeptide ligand of FPRL1, reference compound]	did not induce significant levels	did not induce significant levels	–
WRRKIG [CCXP10]	–	–	Low activity
WRRKIGPQM [CCXP9]	–	–	Low activity
WRRKIGPQMTLSHAAG [CCXP7]	–	–	Low activity
mJE: chemokine mJE (SEQ ID NO: 60), used as chemoattractant adjuvant	did not induce significant levels	did not induce significant levels	–
B1	did not induce significant levels	did not induce significant levels	–
